{"source": "paper PMC4117788", "about": "“Structural dynamics of the two-component response regulator RstA in recognition of promoter DNA element” (Nucleic Acids Research, 2014)", "molecules": {"B1": {"name": "full-length Klebsiella pneumoniae RstA (natural protein)", "chain": "GSAMAMNKIVFVEDDPEVGTLIAAYLGKHDMDVVVEPRGDRAEEVIAREKPDLVLLDIMLPGKDGMTLCRDLRGQWQGPIVLLTSLDSDMNHILSLEMGASDYILKTTPPAVLLARLRLHLRQHIAPAGAGSASSTLTPHKTISFGSLTIDPVNRQVLLGGENVALSTADFDLLWELATHAGQIMDRDALLKNLRGVTYDGMDRSVDVAISRLRKKLLDNATEPYRIKTVRNKGYLFAPHAWDN", "notes": "RstA response regulator of Klebsiella pneumoniae, full length (RD residues 1-119, DBD residues 131-236); Cloned in a modified pET32a(+) lacking the enterokinase site; also called kpRstA; full-length kpRstA; source: E. coli BL21(DE3), purified (Ni-NTA, Superdex-75 SEC, thrombin digestion); not shown: His-tag, N-terminal, cleaved"}, "B2": {"name": "DNA-22 (dsDNA)", "DNA 1": "GTTGTACATTCCGTTACTCCCT", "DNA 2": "AGGGAGTAACGGAATGTACAAC"}, "B3": {"name": "DNA-16a (dsDNA)", "DNA 1": "ACGTTGTACATTCCGT", "DNA 2": "ACGGAATGTACAACGT"}}, "key": {"[1]": {"target": "Klebsiella pneumoniae RstA N-terminal receiver domain (Klebsiella pneumoniae) (UniProt A6T8N1)", "test": "NMR line-widths; inactive kpRstA RD (without BeF3-) at high concentrations; data not shown"}, "[2]": {"target": "the molecule itself", "test": "SEC; full-length kpRstA in the presence of BeF3-; data not shown"}, "kpRstA DBD [3]": {"target": "T1, kpRstA DBD (Klebsiella pneumoniae, UniProt A6T8N1 130-236)", "T1 sequence": "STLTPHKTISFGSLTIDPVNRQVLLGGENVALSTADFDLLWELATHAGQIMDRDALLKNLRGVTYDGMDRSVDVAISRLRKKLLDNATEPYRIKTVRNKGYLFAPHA", "test": "ITC; sequential model, KD1 (first site); ITC 25 C: 20 mM Tris pH 7.5, 100 mM NaCl (DBD); plus 7 mM MgCl2 with or without 5.3 mM BeSO4 and 35 mM NaF (full-length). NMR of complex: 20 mM Na phosphate pH", "conditions": "protein: recombinant; tags: N-terminal M-6H-AMG; chain copies: 2"}, "kpRstA full-length": {"target": "T2, kpRstA full-length (Klebsiella pneumoniae, UniProt A6T8N1 1-239)", "T2 sequence": "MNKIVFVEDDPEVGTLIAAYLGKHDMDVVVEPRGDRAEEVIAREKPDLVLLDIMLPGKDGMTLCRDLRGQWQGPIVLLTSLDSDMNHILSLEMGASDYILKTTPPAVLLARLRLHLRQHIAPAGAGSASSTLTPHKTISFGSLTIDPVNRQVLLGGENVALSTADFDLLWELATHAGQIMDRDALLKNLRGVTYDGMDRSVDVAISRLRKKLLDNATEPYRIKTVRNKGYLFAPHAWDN", "test": "ITC; without BeF3-, 7 mM MgCl2; sequential model, KD1; ITC 25 C: 20 mM Tris pH 7.5, 100 mM NaCl (DBD); plus 7 mM MgCl2 with or without 5.3 mM BeSO4 and 35 mM NaF (full-length). NMR of complex: 20 mM Na phosphate pH", "conditions": "protein: recombinant; tags: His-tag removed by thrombin; N-terminal GSAMA remains; chain copies: 2"}, "kpRstA DBD [4]": {"target": "T1, kpRstA DBD", "test": "ITC; one-site model, N = 1.05 (text gives error 0.54); ITC 25 C: 20 mM Tris pH 7.5, 100 mM NaCl (DBD); plus 7 mM MgCl2 with or without 5.3 mM BeSO4 and 35 mM NaF (full-length). NMR of complex: 20 mM Na phosphate pH", "conditions": "protein: recombinant; tags: N-terminal M-6H-AMG; chain copies: 2"}, "kpRstA DBD R207A": {"target": "kpRstA DBD R207A (Klebsiella pneumoniae, UniProt A6T8N1 130-236, R207A)", "test": "ITC; binding completely abolished; DNA-16a per Figure 1E legend (Table 1 says DNA-22); ITC 25 C: 20 mM Tris pH 7.5, 100 mM NaCl (DBD); plus 7 mM MgCl2 with or without 5.3 mM BeSO4 and 35 mM NaF (full-length). NMR of complex: 20 mM Na phosphate pH", "conditions": "protein: recombinant; tags: N-terminal M-6H-AMG; chain copies: 2"}}, "data": [{"molecule": "Klebsiella pneumoniae RstA N-terminal receiver domain (from UniProt A6T8N1 1-119) (domain or fragment)", "values": [{"measurement": "stoichiometry N", "setting": "[1]", "result": 2}]}, {"molecule": "B1", "values": [{"measurement": "stoichiometry N", "setting": "[2]", "result": 2}]}, {"molecule": "B2", "values": [{"measurement": "Kd", "setting": "kpRstA DBD [3]", "result": "10.3 ± 1.14", "unit": "µM"}, {"measurement": "Kd", "setting": "kpRstA full-length", "result": "45.5 ± 8.41", "unit": "µM"}]}, {"molecule": "B3", "values": [{"measurement": "Kd", "setting": "kpRstA DBD [4]", "result": "8.17 ± 0.53", "unit": "µM"}, {"measurement": "binding result", "setting": "kpRstA DBD R207A", "result": "no binding"}]}]}
